# According to patent US20170333517:
# T1: N-acetyl-proline-glycine-proline
# T1 chain: PGP
# Molecular target: T1, N-acetyl-proline-glycine-proline
row,Protein,"degradation of Ac-PGP (residual Ac-PGP by ESI-LC-MS/MS after 24 h; 1 µg/ml enzyme, 100 µg/ml Ac-PGP)"
1,recombinant human aminopeptidase N (protein) KAWNRYRLPNTLKPDSYRVTLRPYLTPNDRGLYVFKGSSTVRFTCKEATDVIIIHSKKLNYTLSQGHRVVLRGVGGSQPPDIDKTELVEPTEYLVVHLKGSLVKDSQYEMDSEFEGELADDLAGFYRSEYMEGNVRKVVATTQMQAADARKSFPCFDEPAMKAEFNITLIHPKDLTALSNMLPKGPSTPLPEDPNWNVTEFHTTPKMSTYLLAFIVSEFDYVEKQASNGVLIRIWARPSAIAAGHGDYALNVTGPILNFFAGHYDTPYPLPKSDQIGLPDFNAGAMENWGLVTYRENSLLFDPLSSSSSNKERVVTVIAHELAHQWFGNLVTIEWWNDLWLNEGFASYVEYLGADYAEPTWNLKDLMVLNDVYRVMAVDALASSHPLSTPASEINTPAQISELFDAISYSKGASVLRMLSSFLSEDVFKQGLASYLHTFAYQNTIYLNLWDHLQEAVNNRSIQLPTTVRDIMNRWTLQMGFPVITVDTSTGTLSQEHFLLDPDSNVTRPSEFNYVWIVPITSIRDGRQQQDYWLIDVRAQNDLFSTSGNEWVLLNLNVTGYYRVNYDEENWRKIQTQLQRDHSAIPVINRAQIINDAFNLASAHKVPVTLALNNTLFLIEERQYMPWEAALSSLSYFKLMFDRSEVYGPMKNYLKKQVTPLFIHFRNNTNNWREIPENLMDQYSEVNAISTACSNGVPECEEMVSGLFKQWMENPNNNPIHPNLRSTVYCNAIAQGGEEEWDFAWEQFRNATLVNEADKLRAALACSKELWILNRYLSYTLNPDLIRKQDATSTIISITNNVIGQGLVWDFVQSNWKKLFNDYGGGSFSFSNLIQAVTRRFSTEYELQQLEQFKKDNEETGFGSGTRALEQALEKTKANIKWVKENKEVVLQWFTENSK,APN had no activity
2,recombinant human angiotensin converting enzyme (protein) LDPGLQPGNFSADEAGAQLFAQSYNSSAEQVLFQSVAASWAHDTNITAENARRQEEAALLSQEFAEAWGQKAKELYEPIWQNFTDPQLRRIIGAVRTLGSANLPLAKRQQYNALLSNMSRIYSTAKVCLPNKTATCWSLDPDLTNILASSRSYAMLLFAWEGWHNAAGIPLKPLYEDFTALSNEAYKQDGFTDTGAYWRSWYNSPTFEDDLEHLYQQLEPLYLNLHAFVRRALHRRYGDRYINLRGPIPAHLLGDMWAQSWENIYDMVVPFPDKPNLDVTSTMLQQGWNATHMFRVAEEFFTSLELSPMPPEFWEGSMLEKPADGREVVCHASAWDFYNRKDFRIKQCTRVTMDQLSTVHHEMGHIQYYLQYKDLPVSLRRGANPGFHEAIGDVLALSVSTPEHLHKIGLLDRVTNDTESDINYLLKMALEKIAFLPFGYLVDQWRWGVFSGRTPPSRYNFDWWYLRTKYQGICPPVTRNETHFDAGAKFHVPNVTPYIRYFVSFVLQFQFHEALCKEAGYEGPLHQCDIYRSTKAGAKLRKVLQAGSSRPWQEVLKDMVGLDALDAQPLLKYFQPVTQWLQEQNQQNGEVLGWPEYQWHPPLPDNYPEGIDLVTDEAEASKFVEEYDRTSQVVWNEYAEANWNYNTNITTETSKILLQKNMQIANHTLKYGTQARKFDVNQLQNTTIKRIIKKVQDLERAALPAQELEEYNKILLDMETTYSVATVCHPNGSCLQLEPDLTNVMATSRKYEDLLWAWEGWRDKAGRAILQFYPKYVELINQAARLNGYVDAGDSWRSMYETPSLEQDLERLFQELQPLYLNLHAYVRRALHRHYGAQHINLEGPIPAHLLGNMWAQTWSNIYDLVVPFPSAPSMDTTEAMLKQGWTPRRMFKEADDFFTSLGLLPVPPEFWNKSMLEKPTDGREVVCHASAWDFYNGKDFRIKQCTTVNLEDLVVAHHEMGHIQYFMQYKDLPVALREGANPGFHEAIGDVLALSVSTPKHLHSLNLLSSEGGSDEHDINFLMKMALDKIAFIPFSYLVDQWRWRVFDGSITKENYNQEWWSLRLKYQGLCPPVPRTQGDFDPGAKFHIPSSVPYIRYFVSFIIQFQFHEALCQAAGHTGPLHKCDIYQSKEAGQRLATAMKLGFSRPWPEAMQLITGQPNMSASAMLSYFKPLLDWLRTENELHGEKLGWPQYNWTPNSARSEGPLPDSGRVSFLGLDLDAQQARVGQWL,ACE degraded 70% of Ac-PGP
